According to paper PMC11290853:
Read-outs that look alike come from different tables or passages of the source.

How the values were obtained:
[1] = molecular target: T1, type 1 cholecystokinin receptor, wild type, expressed in HEK-293 cells (human), P32238
T1 chain: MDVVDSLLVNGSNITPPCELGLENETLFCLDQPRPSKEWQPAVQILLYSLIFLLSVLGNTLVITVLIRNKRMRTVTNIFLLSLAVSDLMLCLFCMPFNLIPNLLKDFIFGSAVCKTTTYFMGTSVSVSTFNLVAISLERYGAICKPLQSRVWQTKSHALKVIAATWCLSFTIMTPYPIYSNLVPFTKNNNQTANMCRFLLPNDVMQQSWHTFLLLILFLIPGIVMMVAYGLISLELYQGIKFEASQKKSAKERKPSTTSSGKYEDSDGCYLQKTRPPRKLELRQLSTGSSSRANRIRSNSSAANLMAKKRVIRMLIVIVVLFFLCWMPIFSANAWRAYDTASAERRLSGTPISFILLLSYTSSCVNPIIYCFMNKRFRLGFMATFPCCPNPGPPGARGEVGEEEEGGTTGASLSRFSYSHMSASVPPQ

[2] = molecular target: T2, type 2 cholecystokinin receptor, wild type, expressed in HEK-293 cells (human), P32239
T2 chain: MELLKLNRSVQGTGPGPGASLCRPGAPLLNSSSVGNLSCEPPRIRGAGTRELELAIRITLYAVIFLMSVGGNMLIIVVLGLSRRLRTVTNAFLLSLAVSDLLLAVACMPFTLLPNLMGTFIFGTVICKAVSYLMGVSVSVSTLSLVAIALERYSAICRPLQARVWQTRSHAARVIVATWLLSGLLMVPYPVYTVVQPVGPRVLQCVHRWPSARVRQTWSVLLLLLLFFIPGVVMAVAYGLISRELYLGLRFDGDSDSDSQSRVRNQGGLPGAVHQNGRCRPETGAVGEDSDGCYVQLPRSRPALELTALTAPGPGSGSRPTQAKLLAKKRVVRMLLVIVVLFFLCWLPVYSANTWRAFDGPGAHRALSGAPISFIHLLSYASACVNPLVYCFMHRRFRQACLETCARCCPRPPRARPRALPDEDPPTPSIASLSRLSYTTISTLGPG

[3] = molecular target: T3, type 1 cholecystokinin receptor, wild type, expressed in CHO-K1 cells (human), P32238
T3 chain: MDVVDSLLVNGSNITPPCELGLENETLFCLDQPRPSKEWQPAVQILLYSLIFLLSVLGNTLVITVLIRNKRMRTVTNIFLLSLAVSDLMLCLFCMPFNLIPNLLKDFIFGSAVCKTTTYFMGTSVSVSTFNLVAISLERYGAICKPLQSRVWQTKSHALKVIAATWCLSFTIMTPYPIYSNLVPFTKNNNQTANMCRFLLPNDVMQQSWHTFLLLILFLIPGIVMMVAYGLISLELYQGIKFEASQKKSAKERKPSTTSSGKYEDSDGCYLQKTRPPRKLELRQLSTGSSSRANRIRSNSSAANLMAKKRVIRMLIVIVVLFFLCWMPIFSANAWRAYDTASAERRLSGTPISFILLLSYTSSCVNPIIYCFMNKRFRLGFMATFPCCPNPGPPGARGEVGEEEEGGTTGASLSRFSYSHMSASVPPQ

[4] = molecular target: T4, type 1 cholecystokinin receptor, wild type, expressed in SRD15 cells (human), P32238
T4 chain: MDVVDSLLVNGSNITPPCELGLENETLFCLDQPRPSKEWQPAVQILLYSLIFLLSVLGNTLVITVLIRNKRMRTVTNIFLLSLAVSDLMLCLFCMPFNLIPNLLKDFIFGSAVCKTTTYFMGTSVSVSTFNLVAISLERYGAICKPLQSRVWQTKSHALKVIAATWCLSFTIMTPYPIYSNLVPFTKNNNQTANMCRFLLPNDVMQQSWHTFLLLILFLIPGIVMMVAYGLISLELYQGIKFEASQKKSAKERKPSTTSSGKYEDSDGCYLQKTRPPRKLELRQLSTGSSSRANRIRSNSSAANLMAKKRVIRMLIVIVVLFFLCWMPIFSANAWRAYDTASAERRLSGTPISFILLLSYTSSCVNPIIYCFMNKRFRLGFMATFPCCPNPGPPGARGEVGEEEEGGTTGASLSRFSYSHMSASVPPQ

[5] = molecular target: T5, CCK1R(Y140A) expressed in HEK-293 cells (human), P32238
T5 chain: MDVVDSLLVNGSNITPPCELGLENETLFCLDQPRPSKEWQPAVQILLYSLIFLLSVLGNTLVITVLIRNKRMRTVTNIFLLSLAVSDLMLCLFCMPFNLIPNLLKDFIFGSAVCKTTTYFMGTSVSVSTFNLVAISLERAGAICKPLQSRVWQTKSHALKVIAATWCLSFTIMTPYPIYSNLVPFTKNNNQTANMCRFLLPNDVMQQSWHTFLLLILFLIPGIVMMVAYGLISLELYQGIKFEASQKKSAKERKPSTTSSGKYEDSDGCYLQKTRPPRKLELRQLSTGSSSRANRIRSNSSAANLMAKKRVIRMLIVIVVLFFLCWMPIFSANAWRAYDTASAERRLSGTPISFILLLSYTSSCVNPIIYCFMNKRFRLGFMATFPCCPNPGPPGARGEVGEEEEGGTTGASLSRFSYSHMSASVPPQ

[6] = molecular target: T6, CCK1R(sterol 7M) expressed in HEK-293 cells (human), P32238
T6 chain: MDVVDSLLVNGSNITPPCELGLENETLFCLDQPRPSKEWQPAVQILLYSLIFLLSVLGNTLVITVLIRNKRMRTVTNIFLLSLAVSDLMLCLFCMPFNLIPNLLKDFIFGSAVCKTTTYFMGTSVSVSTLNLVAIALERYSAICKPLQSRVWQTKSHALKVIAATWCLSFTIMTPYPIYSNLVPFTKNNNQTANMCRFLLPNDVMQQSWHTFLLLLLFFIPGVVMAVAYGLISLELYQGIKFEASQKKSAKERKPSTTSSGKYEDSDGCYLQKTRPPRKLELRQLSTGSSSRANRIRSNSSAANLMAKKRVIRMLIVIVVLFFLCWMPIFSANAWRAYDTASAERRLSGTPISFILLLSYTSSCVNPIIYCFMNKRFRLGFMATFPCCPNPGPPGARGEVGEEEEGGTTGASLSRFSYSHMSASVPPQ

[7] = molecular target: T7, CCK2R(sterol 7M) expressed in HEK-293 cells (human), P32239
T7 chain: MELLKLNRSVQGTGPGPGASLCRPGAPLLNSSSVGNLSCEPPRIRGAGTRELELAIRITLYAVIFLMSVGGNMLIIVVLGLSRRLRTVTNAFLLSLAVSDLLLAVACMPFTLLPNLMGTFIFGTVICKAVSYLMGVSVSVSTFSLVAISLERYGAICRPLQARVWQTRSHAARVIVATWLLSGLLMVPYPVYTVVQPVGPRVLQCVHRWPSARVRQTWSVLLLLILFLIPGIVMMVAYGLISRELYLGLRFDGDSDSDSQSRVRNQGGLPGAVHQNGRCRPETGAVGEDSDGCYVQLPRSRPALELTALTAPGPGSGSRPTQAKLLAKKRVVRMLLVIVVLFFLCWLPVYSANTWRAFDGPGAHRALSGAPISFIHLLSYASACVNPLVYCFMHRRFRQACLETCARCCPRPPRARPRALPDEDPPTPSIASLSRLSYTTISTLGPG

[8] = molecular target: T1, type 1 cholecystokinin receptor, wild …; assay: radioligand binding
[9] = molecular target: T2, type 2 cholecystokinin receptor, wild …; assay: radioligand binding
[10] = molecular target: T3, type 1 cholecystokinin receptor, wild …; assay: radioligand binding
[11] = molecular target: T4, type 1 cholecystokinin receptor, wild …; assay: radioligand binding
[12] = molecular target: T5, CCK1R(Y140A) expressed in HEK-293 cells …; assay: radioligand binding
[13] = molecular target: T6, CCK1R(sterol 7M) expressed in HEK-293 …; assay: radioligand binding
[14] = molecular target: T7, CCK2R(sterol 7M) expressed in HEK-293 …; assay: radioligand binding
[15] = molecular target: T1, type 1 cholecystokinin receptor, wild …; assay: radioligand binding
[16] = molecular target: T2, type 2 cholecystokinin receptor, wild …; assay: radioligand binding
[17] = molecular target: T5, CCK1R(Y140A) expressed in HEK-293 cells …; assay: radioligand binding
[18] = molecular target: T6, CCK1R(sterol 7M) expressed in HEK-293 …; assay: radioligand binding
[19] = molecular target: T7, CCK2R(sterol 7M) expressed in HEK-293 …; assay: radioligand binding

iCa^2+, pEC50; HEK-293 cells, + Chol [1]: 6.2
iCa^2+, pEC50; HEK-293 cells, control [1]: 5.5
iCa^2+, pEC50; HEK-293 cells, + Chol [2]: 9.4
iCa^2+, pEC50; HEK-293 cells, control [2]: 9.5
iCa^2+, pEC50; CHO-CCK1R cells [3]: 5.3
iCa^2+, pEC50; SRD15-CCK1R cells [4]: 6.8
iCa^2+, pEC50; SRD15-CCK1R cells + MβCD (cholesterol depleted) [4]: 5.7
iCa^2+, pEC50; HEK-293 cells, + Chol [5]: 5.7
iCa^2+, pEC50; HEK-293 cells, control [5]: 5.7
iCa^2+, pEC50; HEK-293 cells, + Chol [6]: 6.8
iCa^2+, pEC50; HEK-293 cells, control [6]: 6.7
iCa^2+, pEC50; HEK-293 cells, + Chol [7]: 9.2
iCa^2+, pEC50; HEK-293 cells, control [7]: 9.1
pIC50 [8]: 4.2
pIC50 [9]: 7.7
pIC50 [10]: 4.5
pIC50 [11]: 5.5
pIC50 [12]: 4.3
pIC50 [13]: < 4
pIC50 [14]: 7.2
pIC50 [15]: 4
pIC50 [16]: 7.8
pIC50 [17]: 4.3
pIC50 [18]: < 4
pIC50 [19]: 7.6
Binder: WMDF (modifications not checked) [CCK-4, C-terminal tetrapeptide of cholecystokinin]
